The values below are quoted from earlier work in publication PMC10361579.

As a reminder, the Kd is the constant that tells how readily two partners part at equilibrium.

In data set [1] the target is classical cadherin (X-dimer) (UniProt P12830).
The target of data set [2] is classical cadherin (strand-swap dimer) (UniProt P12830).

“And” between values parts separate entries of the source, which are not always exact repeats. Equal values may be shown once.

For the substance “classical cadherin (X-dimer) (from UniProt P12830)”, the Kd in data set [1] is 916 µM.

Consider “classical cadherin (strand-swap dimer) (from UniProt P12830)”, for which, in data set [2], the equilibrium dissociation constant (Kd) is 64 µM and 97 µM.
